US20170183407A1

Target: CD19 on tumor target cells (UniProt P15391)
Experiment: cell-based or functional assay

UniProt P15391, sequence (P15391 20-556 limits assumed): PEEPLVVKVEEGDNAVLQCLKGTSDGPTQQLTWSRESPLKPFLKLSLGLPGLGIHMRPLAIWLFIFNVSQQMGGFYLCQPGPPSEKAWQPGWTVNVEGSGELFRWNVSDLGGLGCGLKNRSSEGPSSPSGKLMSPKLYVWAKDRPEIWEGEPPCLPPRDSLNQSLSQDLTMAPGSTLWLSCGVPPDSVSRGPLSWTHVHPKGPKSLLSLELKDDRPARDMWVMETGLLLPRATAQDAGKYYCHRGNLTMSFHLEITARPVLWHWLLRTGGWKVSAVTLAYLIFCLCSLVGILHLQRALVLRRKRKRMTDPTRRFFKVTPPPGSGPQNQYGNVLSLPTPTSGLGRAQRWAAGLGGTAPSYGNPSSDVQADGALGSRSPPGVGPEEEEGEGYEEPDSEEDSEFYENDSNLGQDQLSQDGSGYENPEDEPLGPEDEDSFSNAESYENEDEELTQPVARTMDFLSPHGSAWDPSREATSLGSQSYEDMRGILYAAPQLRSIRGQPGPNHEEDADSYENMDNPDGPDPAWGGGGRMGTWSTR

Substance | percentage of specific cell lysis (4-hour Chromium Release Assay)
Clinical-grade CD19RCD28mζ CAR (CoOpCD19RCD28ζ), on T cells | 49%
EZ CAR CD19RCD28mζ CAR (CD19-specific CAR activated through chimeric CD28/CD3-zeta, made with the EZ CAR platform), on T cells | 52%
